In US20200199244A1 (published 2020):
Several values for one entry are separate records, joined by “and”; a condition that tells them apart may be missing. Equal values may be shown once. Read-outs that look alike come from different tables or passages of the source. Each block holds one binder with its values, some of them ahead of it.

Key:
biotinylated human CD40 [1] = target: T1, biotinylated human CD40 (human, UniProt P25942 21-193, limits assumed, biotinylated (sites not given)); test: SPR, BIAcore 3000, dAb injected alone over biotinylated human CD40 on SA chip
T1 construct: Biotinylated human CD40 (supplied by BMS), about 600 RU immobilised on a streptavidin BIAcore chip; also called hCD40

biotinylated human CD40 [2] = target: T1, biotinylated human CD40; test: SPR, BIAcore 3000 COINJECT over biotinylated human CD40; mixture after first injection; competitor BMS3h-56-5
Method: (§1) A BIAcore™ 3000 instrument (GE Healthcare) was used to analyze whether CD40-specific dAbs bound the same CD40 epitope. […] A second flow-cell without any ligand immobilized served as a reference flow-cell for inline referencing. An appropriate dilution of each dAb or Fab to be analyzed was prepared in HBS-EP buffer (0.01 M HEPES pH 7.4 with 0.15 M NaCl, 3 mM EDTA and 0.005% v/v Surfactant P20, GE Healthcare). […] Next, a mixture of the same dAb or Fab as above (at the same final concentration) was prepared with a second dAb or Fab to be analyzed for competition. The COINJECT function of the instrument was used to inject 60 μl of the single-inhibitor dilution across the CD40-immobilized and reference flow-cells in series, followed immediately by a 60 μl injection of the two-inhibitor mixture. Inline subtraction of the signal from the reference cell was performed by the instrument's control software. The experiment was performed at 25° C. and a flow rate of 30 μl/min of HBS-EP. […] The maximum RU obtained for the second injection (the mixture of the two inhibitors) was noted and expressed as a percentage of the RU obtained for the same inhibitor when injected alone.

biotinylated human CD40 [3] = target: T1, biotinylated human CD40; test: SPR, BIAcore 3000 COINJECT over biotinylated human CD40; mixture after first injection; competitor BMS3h-198-1
Method: as §1

biotinylated human CD40 [4] = target: T1, biotinylated human CD40; test: SPR, BIAcore 3000 COINJECT over biotinylated human CD40; mixture after first injection; competitor BMS3h-37-11
Method: as §1

biotinylated human CD40 [5] = target: T1, biotinylated human CD40; test: SPR, BIAcore 3000 COINJECT over biotinylated human CD40; mixture after first injection; competitor BMS3h-202-11
Method: as §1

[6] = target: T2, human CD40 (BMS, CY24FEB06-01) (human, UniProt P25942 21-193); test: bead RBA, competition with IZ-CD40L
T2 construct: Soluble reagent of the bead and ELISA RBA; It is detected with an anti-human IgG (Fc) mAb, so it may be a CD40-Ig fusion

[7] = target: T3, human CD40 expressed on stably transfected CHO-DG44 cells (human, UniProt P25942 21-277); test: CHO-CD40 cell RBA, competition with IZ-CD40L
T3 construct: also called CHO-CD40

biotinylated human CD40 [8] = target: T1, biotinylated human CD40; test: SPR, BIAcore 3000, dAb injected alone over biotinylated human CD40 on SA chip; remark: listed apart in the source
Method: as §1

biotinylated human CD40 [9] = target: T1, biotinylated human CD40; test: SPR, BIAcore 3000 COINJECT over biotinylated human CD40; mixture after first injection; competitor BMS3h-56-5; remark: listed apart in the source
Method: as §1

biotinylated human CD40 [10] = target: T1, biotinylated human CD40; test: SPR, BIAcore 3000, 5 µM dAb alone over biotinylated human CD40
Method: as §1

biotinylated human CD40 [11] = target: T1, biotinylated human CD40; test: SPR, BIAcore 3000 COINJECT over biotinylated human CD40; mixture after first injection; competitor BMS3h-131-2
Method: as §1

biotinylated human CD40 [12] = target: T1, biotinylated human CD40; test: SPR, BIAcore 3000, 10 µM dAb alone over biotinylated human CD40
Method: as §1

[13] = target: T4, wild type human CD40 Fc fusion (human, UniProt P25942 21-193); test: SPR ProteOn XPR36, CD40-Fc captured, dAb analyte
T4 construct: also called wt-hCD40; not shown: human IgG1 Fc

[14] = target: T5, human CD40 (H76R) Fc fusion (human, UniProt P25942 21-193); test: SPR ProteOn XPR36, CD40-Fc captured, dAb analyte
T5 construct: As m1 with H76R; also called hCD40-M1; not shown: human IgG1 Fc

[15] = target: T6, human CD40 (W109L) Fc fusion (human, UniProt P25942 21-193); test: SPR ProteOn XPR36, CD40-Fc captured, dAb analyte
T6 construct: As m1 with W109L; also called hCD40-M2; not shown: human IgG1 Fc

[16] = target: T7, human CD40 (W109R) Fc fusion (Chimpanzee CD40) (human, UniProt P25942 21-193); test: SPR ProteOn XPR36, CD40-Fc captured, dAb analyte
T7 construct: As m1 with W109R (residue of chimpanzee CD40); also called hCD40-M3; not shown: human IgG1 Fc

[17] = target: T8, human CD40 (W109L, L121P) Fc fusion (human, UniProt P25942 21-193); test: SPR ProteOn XPR36, CD40-Fc captured, dAb analyte
T8 construct: As m1 with W109L and L121P; also called hCD40-M4; not shown: human IgG1 Fc

[18] = target: T9, human CD40 (H76R, W109L, L121P) Fc fusion (human); test: SPR ProteOn XPR36, CD40-Fc captured, dAb analyte
T9 construct: As m1 with H76R, W109L and L121P; also called hCD40-M5; not shown: human IgG1 Fc
T9 chain: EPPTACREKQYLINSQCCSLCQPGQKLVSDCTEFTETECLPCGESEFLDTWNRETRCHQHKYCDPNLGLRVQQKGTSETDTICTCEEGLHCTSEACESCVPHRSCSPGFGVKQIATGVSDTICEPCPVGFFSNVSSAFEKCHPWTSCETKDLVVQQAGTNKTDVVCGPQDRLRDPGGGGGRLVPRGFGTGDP

[19] = target: T10, wild type cynomolgus monkey CD40 Fc fusion (cynomolgus monkey; human); test: SPR ProteOn XPR36, CD40-Fc captured, dAb analyte
T10 construct: also called wt-cyno-CD40; wt-cCD40; not shown: human IgG1 Fc
T10 chain: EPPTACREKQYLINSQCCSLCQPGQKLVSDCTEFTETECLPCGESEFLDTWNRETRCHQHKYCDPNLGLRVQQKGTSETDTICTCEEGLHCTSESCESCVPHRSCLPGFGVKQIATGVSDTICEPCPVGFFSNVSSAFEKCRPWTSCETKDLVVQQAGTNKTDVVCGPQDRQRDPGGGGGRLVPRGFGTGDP

RU first dAb alone (biotinylated human CD40 [1]): 220 RU | Second Injection (% of single dAb RU) (biotinylated human CD40 [2]): 17% | Second Injection (% of single dAb RU) (biotinylated human CD40 [3]): 41% | Second Injection (% of single dAb RU) (biotinylated human CD40 [4]): 25% | Second Injection (% of single dAb RU) (biotinylated human CD40 [5]): 57%
B1: BMS3h-131-2 (other)
VL: DIQMTQSPSSLSASVGDRVTITCRADSSILWALAWYQQKPGKAPKLLIESSSGLQSGVPSRFSGSGSGTDFTLTISSLQPEDFATYYCVQNAVWPGTFGQGTKVEIKR
notes: Domain antibody (dAb), single human V kappa domain

EC50 [6]: 100 nM and 50 nM | EC50 [7]: 5000 nM
B2: BMS3h-43 (other)
VH: EVQLLESGGGLVQPGGSLRLSCTASGFTFNMYEMSWVRQAPGKGLEWVSGISRRGFTTYYADSVKGRFTISRDNSKNTLYLQMNSLRAEDTAVYYCAKEPITYAMRYARFDYWGQGTLVTVSS
notes: dAb, single VH

RU first dAb alone (biotinylated human CD40 [8]): 210 RU | Second Injection (% of single dAb RU) (biotinylated human CD40 [9]): 22%
B3: BMS3h-43-1 (other)
VH: EVQLLESGGGLVQPGGSLRLSCTASGFTFNMYEMSWVRQAPGKGLEWVSGISRRGFTTYYADSVKGRFTISRDNSKNTLYLQMNSLRAEDTAVYYCAKEPITYDLRYARFDYSGQGTLVTVSS
notes: Domain antibody (dAb), single human VH domain

Single dAb RU (biotinylated human CD40 [10]): 300 RU
B4: BMS3h-43-3 (other)
VH: EVQLLESGGGLVQPGGSLRLSCTASGFTFNMYEMSWVRQAPGKGLEWVSGISRRGFTTYYADSVKGRFTISRDNFKNTLYLQMNSLRAEDTAVYYCAKEPITYDMRYARFDYGGQGTLVTVSS
notes: as for B3

RU first dAb alone (biotinylated human CD40 [8]): 170 RU | Second Injection (% of single dAb RU) (biotinylated human CD40 [9]): 4%
B5: BMS3h-38-2 (other)
VH: EVQLLASGGGLVQPGGSLRLSCAASGFTFEEEEMIWVRQAPGKGLEWVSAISGSGGSTYYADSVKGRFTISRDNSKNTLYLQMNSLRAEDTAVYYCGKEPFRYDYWGQGTLVTVSS
notes: as for B3

RU first dAb alone (biotinylated human CD40 [1]): 158 RU | Second Injection (% of single dAb RU) (biotinylated human CD40 [2]): -15% | Second Injection (% of single dAb RU) (biotinylated human CD40 [11]): -3.7% | Second Injection (% of single dAb RU) (biotinylated human CD40 [3]): 6.4% | Second Injection (% of single dAb RU) (biotinylated human CD40 [5]): 42%
B6: BMS3h-37-11 (other)
VH: EVQLLESGGGLVQPGGSLRLSCAASGFTFEWYEMQWVRKAPGKGLEWVSAISGDGYRTYYADSVKGRFTISRDNSKNTLYLQMNSLRAEDTAVYYCAKELGYFDYRGRGTLVTVSS
notes: as for B3

Single dAb RU (biotinylated human CD40 [12]): 85 RU
B7: BMS3h-217 (other)
VL: DIQMTQSPSSLSASVGDRVTITCRASHFIGTLLSWYQQKPGKAPKLLITYGSLLQSGVPSRFSGSGSGTDFTLTISSLQPEDFATYYCGQGVLWPATFGQGTKVEIKR
notes: as for B1

Kd [13]: 0.22 nM and 0.26 nM | Kd [14]: 0.35 nM | Kd [15]: 0.41 nM | Kd [16]: 0.27 nM | Kd [17]: 0.35 nM | Kd [18]: 0.5 nM | Kd [19]: 0.4 nM
B8: BMS3h-217-16 (other)
VL: DIQMTQSPSSLSASVGDRVTITCRASHFIGTLLSWYQQKPRKAPKLLITYGSLLQSGVPSRFSGSGSGTDFTLTISSLQPEDFATYYCGQGVLWPPTFGQGTKVEIKR
notes: domain antibody (dAb), single VK domain

Kd [13]: 0.47 nM and 0.48 nM | Kd [14]: 0.94 nM | Kd [15]: 0.99 nM | Kd [16]: 0.72 nM | Kd [17]: 0.93 nM | Kd [18]: 1 nM | Kd [19]: 0.9 nM
B9: BMS3h-217-5 (other)
VL: DIQMTQSPSFLSASVGDRVTITCRASHFIATLLSWYQQKPGKAPKLLITYGSLLQSGVPSRFSGSGSGTDFTLTISSLQPEDFATYYCGQGVLWPPTFGQGTKVEIKR
notes: as for B8

EC50 [6]: 80 nM | EC50 [7]: 600 nM
B10: BMS3h-198 (other)
VH: EVQLLESGGGLVQPGGSLRLSCAASGFTFAGYEMWWVRQAPGKGLERVSAISGSGGSTYYADSVKGRFTISRDDSKNTLYLQMNSLRAEDTAVYYCAKDPYSFDYWGQGTLVTVSS
notes: dAb, single VH

RU first dAb alone (biotinylated human CD40 [1]): 176 RU | Second Injection (% of single dAb RU) (biotinylated human CD40 [2]): 0.6% | Second Injection (% of single dAb RU) (biotinylated human CD40 [11]): 23.2% | Second Injection (% of single dAb RU) (biotinylated human CD40 [4]): 16% | Second Injection (% of single dAb RU) (biotinylated human CD40 [5]): 39%
B11: BMS3h-198-1 (other)
VH: EVQLLESGGGLVQPGGSLRLSCAASGSTIAGYEMWWVRQAPGKGLERVSAISGSGGSTYYADSVKGRFTISRDDSKNTLYLQMNSLRAEDTAVYYCARDPYSFDYWGQGTLVTVSS
notes: as for B3

Single dAb RU (biotinylated human CD40 [12]): 165 RU
B12: BMS3h-106 (other)
VH: EVQLLESGGGLVQPGGSLRLSCAASGFTFSTYHMQWVRQAPGKGLEWVSMIDADGLGTYYADSVKGRFTISRDNSKNTLYLQMNSLRAEDTAVYYCAKPGPQFGQFDYWGQGTLVTVSS
notes: as for B3

Single dAb RU (biotinylated human CD40 [12]): 35 RU
B13: BMS3h-107 (other)
VH: EVQLLESGGGLVQPGGSLRLSCAASGFTFSGYDMQWVRQAPGKGLEWVSTISASGVFTYYADSVKGRFTTSRDNSKNTLYLQMNSLRAEDTAVYYCAKYPNRFALNNFDYWGQGTLVTVSS
notes: as for B3

RU first dAb alone (biotinylated human CD40 [1]): 124 RU | Second Injection (% of single dAb RU) (biotinylated human CD40 [2]): 7.3% | Second Injection (% of single dAb RU) (biotinylated human CD40 [11]): 10.3% | Second Injection (% of single dAb RU) (biotinylated human CD40 [3]): 18% | Second Injection (% of single dAb RU) (biotinylated human CD40 [4]): 0.3%
B14: BMS3h-202-11 (other)
VH: EVQLLESGGGLVQPGGSLRLSCAASGFTFPTAEMLWVRKAPGKGLEWVSSISASGGSTYYADSVKGRFTISRDNSKNTLYLQMNSLRAEDAAVYYCAKEPVSYVATFDYWGQGTLVTVSS
notes: as for B3

RU first dAb alone (biotinylated human CD40 [8]): 150 RU | Second Injection (% of single dAb RU) (biotinylated human CD40 [9]): 0%
B15: BMS3h-41-9 (other)
VH: EVQLLEPGGGLVQPGGSLRLSCAASGFTFTEYEMIWVRKAPGKGMEWVSSISGNGANTYYADSVKGRFTISRDNSKNTLYLQMNSLRPEDTAVYYCAKEPLRFDDWGQGTLVTVSS
notes: as for B3

Single dAb RU (biotinylated human CD40 [10]): 162 RU
B16: BMS3h-41-13 (other)
VH: EVQLLESAGGLVQPGGSLRLSCAASGFTFAEYEMIWVRQAPGKGLEWVSSISGNGANTYYADSVKGRFTISRDNSKNTLYLQMNSLRAEDTAVYYCAKEPLRFDYWGQGALVTVSS
notes: as for B3

Single dAb RU (biotinylated human CD40 [10]): 282 RU
B17: BMS3h-193-12 (other)
VL: DIQMTQSPSSLSASVGDRVTITCRASQTIERRLNWYQQKPGKAPKLLIYLASRLQSGVPSRFSGSGSGTDFTLTISSLQPEDFATYYCHQYESPPLTFGQGTKVEIKR
notes: as for B1
